This is an account of results in patent US20150030596A1 (SAMSUNG ELECTRONICS, published 2015).

The target of test [1] is T1, EGFR-Fc (#344-ER, R&D Systems) (UniProt P00533 25-645).
T1 construct: Bought reagent; also called EGFR (R&D systems); EGFR (#344-ER, R&D Systems); not shown: Fc part of the bought fusion protein; not described
Kind of test: SPR (Biacore T100); ME-19 captured on human Fab binder on a CM5 chip, EGFR-Fc as analyte. The procedure:
Human Fab binder (GE Healthcare) was immobilized on the surface of CM5 chip (#BR-1005-30, GE) according to the manufacturer's manual. […] 10 mM Glycine-HCl (pH 1.5) solution was added hereto, to regenerate the surface. To determine the affinity, the obtained data were fitted using BIA evaluation software (GE Healthcare, Biacore T100 evaluation software).
(In general: Surface plasmon resonance follows binding to a sensor surface in real time, without labels.)

Test [2] deals with T1, EGFR-Fc (#344-ER, R&D Systems). Kind of test: competitive ELISA: plate coated with EGFR (#344-ER, 0.25 ug/well), 20 ng/ml biotinylated EGF mixed with serially diluted ME-19, streptavidin/HRP detection, OD405. The procedure:
96-well immunoplate (Nunc) was coated with EGFR (#344-ER, R&D Systems) in the amount of 0.25 μg/well. […] The resulted reacting product was washed with PBS containing 0.05% (w/v) of Tween 20. HRP (Horse radish peroxidase) conjugated […] (#21140, Thermo scientific) was added to the each well and reacted at room temperature for 1 hour.

The target is the same in test [3]. Kind of test: SPR (Biacore T100); ME-28 captured on human Fab binder on a CM5 chip, EGFR-Fc as analyte. The procedure: The binding affinity of bispecific chimeric protein ME-28 to EGFR was examined using Biacore T100 (GE). Human Fab binder (GE Healthcare) was immobilized on the surface of CM5 chip (#BR-1005-30, GE) according to the manufacturer's manual. About 90˜120 RU of the bispecific chimeric protein ME-28 was captured, and various concentrations of EGFR-Fc (#344-ER, R&D Systems) were added to the captured bispecific chimeric protein. 10 mM Glycine-HCl (pH 1.5) solution was added hereto, to regenerate the surface. To determine the affinity, the obtained data were fitted using BIA evaluation software (GE Healthcare, Biacore T100 evaluation software).

B1: bispecific chimeric protein ME-19 (L3-1Y-IgG2 heavy chain-(G4S)2-anti-EGFR DARPin-01) (bispecific antibody)
heavy: EVQLVESGGGLVQPGGSLRLSCAASGFTFTDYYMSWVRQAPGKGLEWLGFIRNKANGYTTEYSASVKGRFTISRDNSKNTLYLQMNSLRAEDTAVYYCARDNWFAYWGQGTLVTVSSASTKGPSVFPLAPCSRSTSESTAALGCLVKDYFPEPVTVSWNSGALTSGVHTFPAVLQSSGLYSLSSVVTVPSSNFGTQTYTCNVDHKPSNTKVDKTVERKCCVECPPCPAPPVAGPSVFLFPPKPKDTLMISRTPEVTCVVVDVSHEDPEVQFNWYVDGVEVHNAKTKPREEQFNSTFRVVSVLTVVHQDWLNGKEYKCKVSNKGLPAPIEKTISKTKGQPREPQVYTLPPSREEMTKNQVSLTCLVKGFYPSDIAVEWESNGQPENNYKTTPPMLDSDGSFFLYSKLTVDKSRWQQGNVFSCSVMHEALHNHYTQKSLSLSPGKGGGGSGGGGSDLGKKLLEAARAGQDDEVRILMANGADVNADDTWGWTPLHLAAYQGHLEIVEVLLKNGADVNAYDYIGWTPLHLAADGHLEIVEVLLKNGADVNASDYIGDTPLHLAAHNGHLEIVEVLLKHGADVNAQDKFGKTAFDISIDNGNEDLAEILQ
light: DIQMTQSPSSLSASVGDRVTITCKSSQSLLASGNQNNYLAWYQQKPGKAPKMLIIWASTRVSGVPSRFSGSGSGTDFTLTISSLQPEDFATYYCQQSYSRPYTFGQGTKVEIKRTVAAPSVFIFPPSDEQLKSGTASVVCLLNNFYPREAKVQWKVDNALQSGNSQESVTEQDSKDSTYSLSSTLTLSKADYEKHKVYACEVTHQGLSSPVTKSFNRGEC
notes: The DARPin is fused to the C-terminus of each heavy chain; also called anti-c-Met/anti-EGFR DARPin bispecific chimeric protein
In the case of B1, in test [1], the Kd came to 350 pM, the koff was determined as 6.4e-05 s⁻¹ and the kon was found to be 180000 M⁻¹ s⁻¹. The “IC50 (read off the curve)” value in test [2] was about 0.5 µg/mL.

B2: bispecific chimeric protein ME-28 (L3-1Y-IgG2 heavy chain-(G4S)2-anti-EGFR DARPin-01-(G4S)2-anti-EGFR DARPin-69) (bispecific antibody)
heavy: EVQLVESGGGLVQPGGSLRLSCAASGFTFTDYYMSWVRQAPGKGLEWLGFIRNKANGYTTEYSASVKGRFTISRDNSKNTLYLQMNSLRAEDTAVYYCARDNWFAYWGQGTLVTVSSASTKGPSVFPLAPCSRSTSESTAALGCLVKDYFPEPVTVSWNSGALTSGVHTFPAVLQSSGLYSLSSVVTVPSSNFGTQTYTCNVDHKPSNTKVDKTVERKCCVECPPCPAPPVAGPSVFLFPPKPKDTLMISRTPEVTCVVVDVSHEDPEVQFNWYVDGVEVHNAKTKPREEQFNSTFRVVSVLTVVHQDWLNGKEYKCKVSNKGLPAPIEKTISKTKGQPREPQVYTLPPSREEMTKNQVSLTCLVKGFYPSDIAVEWESNGQPENNYKTTPPMLDSDGSFFLYSKLTVDKSRWQQGNVFSCSVMHEALHNHYTQKSLSLSPGKGGGGSGGGGSDLGKKLLEAARAGQDDEVRILMANGADVNADDTWGWTPLHLAAYQGHLEIVEVLLKNGADVNAYDYIGWTPLHLAADGHLEIVEVLLKNGADVNASDYIGDTPLHLAAHNGHLEIVEVLLKHGADVNAQDKFGKTAFDISIDNGNEDLAEILQGGGGSGGGGSDLGKKLLEAARAGQDDEVRILMANGADVNADDNAGRTPLHLAANFGHLEIVEVLLKNGADVNAKGHHCNTPLHLAAWAGHLEIVEVLLKYGADVNADDDEGYTPLHLAADIGDLEIVEVLLKYGADVNAWDMYGRTPLHLAASAGHLEIVEVLLKYGADVNAQDKFGKTAFDISIDNGNEDLAEILQ
light: B1 light
notes: Two DARPins are linked in tandem to each heavy chain C-terminus of the IgG; also called anti-c-Met/anti-EGFR (E01+E69) DARPins bispecific chimeric protein
In test [3], B2 returned a Kd of under 10 pM, a dissociation rate constant (koff) of under 3.4e-05 s⁻¹ and a kon of 110000 M⁻¹ s⁻¹.

In general, Kd refers to a measure of binding affinity in units of concentration. Lower therefore signals tighter binding. As usually defined, the koff is the first-order rate constant of dissociation. A lower koff goes with a long-lived complex. For orientation: kon means the second-order rate constant of association. Read a high kon as faster complex formation.
